Experimental data: patent US20190321466A1 (CTTQ AKESO SHANGHAI BIOMED TECH, published 2019)

Target: T1, PD1 antigen obtained by cleaving PD1-mFc with TEV protease, labeled with biotin (UniProt Q15116 25-170, limits assumed, labeled with biotin (site not stated))
T1 construct: also called antigen PD1
Assay: Fortebio Octet, biotin-PD1 on SA sensor, antibody in solution
Description: 2. […] The dissociation of antigen and antibody were also in PBST.

T1 sequence (Q15116 25-170 limits assumed): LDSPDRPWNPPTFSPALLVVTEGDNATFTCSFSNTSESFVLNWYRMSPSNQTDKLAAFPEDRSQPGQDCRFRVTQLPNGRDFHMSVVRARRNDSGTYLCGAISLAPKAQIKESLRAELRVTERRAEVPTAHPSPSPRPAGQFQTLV

Kd: 18.1 pM
koff: 6.12e-06 s⁻¹
kon: 338000 M⁻¹ s⁻¹
B1: monoclonal antibody 14C12 (secreted by hybridoma cell line LT003) (antibody, V domains shown)
VH: EVKLVESGGGLVKPGGSLKLSCAASGFAFSSYDMSWVRQTPEKRLEWVATISGGGRYTYYPDSVKGRFTISRDNARNTLYLQMSSLRSEDTALYYCANRYGEAWFAYWGQGTLVTVSA
VL: DIKMTQSPSSMYASLGERVTFTCKASQDINTYLSWFQQKPGKSPKTLIYRANRLVDGVPSRFSGSGSGQDYSLTISSLEYEDMGIYYCLQYDEFPLTFGAGTKLEL
notes: Mouse antibody purified from hybridoma supernatant; also called PD1-14C12
